B1: c4302 (antibody, V domains shown)
VH: QVLLEQSGGEMKKPGASLKVSCQASGYRFTNYGMSWVRQARGQGLEWMGWISAYNGKTIYAQRFQGRVTLTTDTSTRTAYLELRSLTSDDTAVYFCTRSQTYYFDSSDFYDGKYFDYWGQGTLVTVSS
VL: AIQLTQSPSSLSASVGDRVTLTCRASQGISNALAWYQQKPGESPKLLIHAASSLESGVPSRFSGSGSGTDFTLTISGLQAEDFATYYCQQFNSFPLTFGPGTRLEIK
B2: c9370 (antibody, V domains shown)
VH: EVQLVESGGGVVQPGGSLRLSCAASGFTFYSHTMIWVRQAPGKGPQYISHISSTGSNKDYSDSVKGRFTVSRDNDKNSLYLQMDSLRVEDTAIYYCARRSCSLTDCFVRSFSYDMDVWGQGTAVTVSS
VL: QSALTQPASMSGSPGQSISISCTGTTSDIGGYDSVCWYRQHPGEAPTLLIYDVSNRPSGVSGRFSGSKSANTASLTISGLQAEDEADYYCSSYSTGSSLVVFGGGTKLTVI
B3: c10859 (antibody, V domains shown)
VH: AGHLVESGGKLIRPGGSLSLSCVASGFTFRNAYLTWVRHIPGKGLEWVAHMKSHADGSHTDYSASVQGRCAISRDDSASTLYLHISNLRLDDTGVYYCVHLSTPDEWGHGTPVIVSS
VL: DVVLTQYPVTLSGSQGDTVALSCRASESLTSHLAWYQQRDGQRPRLLIYDTSHRPPATPPRFSASGSGTDFTLIITSLEPEDSAVYFCQQRDFWPFSFGQGTKLDIT
B4: c5296 (antibody, V domains shown)
VH: QVHLQESAPTLVKTSETLSLTCTVSGGQFYPYFYSWIRQSPGGKLQWIGRKYSTTGSMRTNPSLHTRVGMPLDHSRSQIGLTLSSITAADTGIYYCVRDIMRDFDSVDGSGGVYGGVDVWGRGTTVTVSS
VL: QFLLTQPHSVSGSPGKTITISCTRSDGTFARNSVRWYLQRPGEGPTTVFFDGNRRASGIPDRFSASIAVSSASASLTISGLTPEDEADYYCESSDGGHHVVFGGGTKVTVL
B5: c9603 (antibody, V domains shown)
VH: EVHLLQSAAEVKKPGSTVKVSCKVSGYTFTDYFLHWIQQTPERGLLWMGFVDPDSGVTVYAENFQGRITMTADTSSDTVYLEISSLTSEDAAVYYCATGSHSYPDTDGNPVYVMAFQYWGQGTLVSVSS
VL: DIVMTQSPDSLGVSLGETATVKCKSSQSILYSSDNKNYLAWYQQKPGQPPKLLIYWASTRESGVPDRFSGSGSETDFTLTINNVQAEDVAVYYCQQYSESPPTFGGGTKVDFK
B6: c13160 (antibody, V domains shown)
VH: QLHLQESGPGLVKPSETLFLTCTVSGGSMSSSSYYWVWIRQPPRGRDWSRIGSIYYTGSTLTTTHPWRVESLLSVDTSKNQFSLKMNSVTAADTARYYCASSGLYAFWGQGILVPVSS
VL: DAVVTQSPLVLPVTLGQPASISCRSNQSLLFGEGNTYLNWFQQRPGQSPRRLIHNISKRDSGVPDRFSGSGSGTDFTLEISRVEAEDVGVYYCMQGIHSPPTWTFGQGTKVEIK
B7: c13230 (antibody, V domains shown)
VH: QVQLVESGGGVVQPGKSLKLSCATSGFNFSTFGIHWVRQAPGKGLEWLTVISYDGSEKFYGESVKGRFTISRDTSKKTVFLQIKSLKTEDTAVYYCAKDRAENRVSTSPLGMYYYFGMDVWGQGTTVIVSS
VL: EIMMTQSPATLSASPGEGVTLSCRASQSVSNDFAWYQQTPGQSPKLLFYDAYTRATGVPARFSVNGSGTDFTLTINSLQSEDFASYYCLQYHKWPPYSFGQGTKLGIK
B8: c8537 (antibody, V domains shown)
VH: QVHLVESGGGVVQPGKSLRLSCTSSGFTFSNYGFHWVRQAPGKGLEWVSFISNDGSNHFYTQSLRGRFTISRDNSKGTLYLEMNSLRSEDTAIYYCARDLYSRYRGYYDDLTGENHGNFDYWGLGTLVTVSA
VL: NFLLSQSLSVSESPGKTVTISCTRSSGNIASNSVQWYQLRPGSSPTTLIYKNRQRPSGISDRFSGSVDTSSNSASLIISGLKTDDEADYYCQSFDNVNQEWVFGGGTKVTVL
B9: c7565 (antibody, V domains shown)
VH: QVRLEERGPGLVKPSETLSLVCGVSGYTMSGLWSTTYDWNWIRQSAGGRPEWIGRIYVGGPAQYNPAFKDRVAFSIDLSKNELSLTLTSVTAADSATYFCARGGDTFHPRYWYTMNIWGSGTKVIVSS
VL: DIQLTQSPSTVSASVGDRITMSCRANKSLDVWVAWFRRRPGKAPEHLIYRRDYVWGGLPSRFSGSGSGTEFTLTISSLQAGDFGTYYCHQYKDQPWTFGQGTRVDLK
B10: c11405 (antibody, V domains shown)
VH: EARLVESGGGRVQPGGSLRLSCEASGFRFSSYSFTWVRQSPGKGLEWLAKISASPFGRSQVNYAHSVEGRFTISRDNDRNSLRLQMNDLRGADTGVYYCARAPWQERSLDYNYAMDVWGQGTTVIVSS
VL: ELVLTQSPGTLSLSPGERATVSCRASQSLRRDSLAWYQQKPGHSPRLLIFAASNRVPGIPYRFSGTGSGTQFTLTIEKMEPEDFAVYYCQSYGSSPLYTFGQGTKLDIN
B11: c6486 (antibody, V domains shown)
VH: QPQMIQSGIEVKQPGAAVKVRCKPSGYWFIACGISWVRQAPGRGLEWLGWVYPYNGKVNHAQKFRGRVTLTADRSTETAYMELKSLTSDDTAIYYCARDSEQYDAAMPNYFTQYGMDVWGQGTTVIVSS
VL: EIVLTQSPGTLSLSPGETAALSCRSSQAFTDKGLAWYKQRPGQPPSLFVYGVSKRAAGVPDRVTGSGSGTEYTLTIGRLEPEDSGLYFCQQYHDPARTFGQGTKLEIK
B12: c5250 (antibody, V domains shown)
VH: QVRLEQWGPGLLKPSETLSLTCAVHGESFDDYSWTWIRHTPSLGLQWIGEIRPFGEIVHKSSLSGRLSFSRDTSKRQVYLKLASVTAADAGVYFCARGPVIYQLPHFYYRGYNVWGQGTTVTVSA
VL: DLVVTQSPRSLPVTPGESATIFCRSSQSLRHDNGMHYLDWYLQKPGQSPQLLIYLTSNRASGVSDRFSGSGSGTEFTLKISRVEADDVGIYYCMQAIQDPRVFGQGTRLEIK
B13: c5478 (antibody, V domains shown)
VH: QVRLQQWGPGLLKPSDTLSLTCAVHGESFHDYSWTWIRQTPSLGLQWIGEIRPFGEIVHKSSLSGRLSFSRDTSKRQVSLRLTSVTAADAGVYFCARGPVIYHLPDFYYRGYNVWGQGTTVTVSA
VL: DVVVTQSPRSLRVTPGESATIFCRSSQSLRHANGMHYLDWYLQKPGQSPQLLIYLTSNRASGVPDRFSGSGSGTEFTLKISRVEADDVGMYYCMQAIQDPRVFGQGTRLEIK
B14: c22674 (antibody, V domains shown)
VH: QVQLVQSGPEVKKPGTSVKVSCKASGYTFSNYAICWVRQAPGQGLEWVGATSAYNDETSYAQKFQGRVTVTRDSSTSTAYLELRSLRSEDSAVYYCARGGYYESSGSDASDYYAMDVWGQGTTVTVSS
VL: SYELTQPPSVSVSLGQMARITCSGDALSKKYVYWYQQKPGQVPVLVMYQDTERPSGIPERFSGSTSGTIVTLIIGGVQAEDEADYFCLSADDSGTYVVFGGGTKLTVL
B15: c9369 (antibody, V domains shown)
VH: QVQLVQSGAEVKKPGSSVKVSCKASGGSFSDFGISWVRQAPGQGLEWMGGIIPGFETANYGQDFQGRVTMTADESTGTAYMEVRRLRSEDTAVYYCATTGQQNDYYSSGASYKLNYYFGLDVWGQGTAVSVSS
VL: QSVLTQPPSSSGTPGQRVTISCSGSSSNIGSNTVNWYQQLPGTAPKVVISANHQRPSGVPDRFSASKSGASASLAISGLQSEDEADYYCAAWDDSRNAWVFGGGTKLTVL
B16: c9416 (antibody, V domains shown)
VH: QVQLVQSGAEVRKPGSSVKVSCKASGGSFSDFGISWVRQAPGQGLEWMGGIIPGFETANYGQDFQGRVTMTADESTGTAYMELRRLRSEDTAVYYCATTGQQNDYYSSGLSYKLNYYLGLDVWGQGTAVSVSS
VL: QSVLTQPPSSSGTPGQRVTISCSGSSSNIGSNSVNWYQQLPGAAPKVVISANHQRPSGVPDRFSASKSGASASLAISGLQSEDEADYYCAAWDDSRNAWVFGGGTKLTVL
B17: c11031 (antibody, V domains shown)
V domain 1: EVRLDQSGAEMRKTGTSVRLSCTISGHTTSDFFIHWVKQAPQRGPQWMGLINVEDENVIFAEGFQGRISIGADTSRTTVFLDLTHLTVEDMALYFCTTHTLEKDTGDYVAAFDSWGHGTFLSVSS
V domain 2: QSVLTQPPSVSAVPGQKVIISCSGRTSNIGTNFVSWYQQFPGAAPKLLIYDTSHRPSGISDRFSASKSDTSATLAITALQPGDEAEYYCGAWDSGLNPAVFVFGSGTRVFVL
B18: c10920 (antibody, V domains shown)
V domain 1: EVRLDQSGAEMRKPGTSVRLSCTVSGHRTNDFFIHWVKQDPQRGPLWMGLINVEDENAIYAQEFQGRISIVADSSKTTVFLDLSHLKFEDTALYLCTTHTLEKETGDYVAAFDSWGQGTFLSVSS
V domain 2: QSVLTQPPSVSAVPGQKVIISCSGRTSNIGTNFVSWYQQFPGAAPKLLIYDTFHRPSGISDRFSASKSDTSATLAITALQPGDEAEYYCGSWDSGLNPAVFVFGSGTRVFVL
B19: c10927 (antibody, V domains shown)
V domain 1: EVRLDQSGTEMRKPGTRVRLSCKVSGHTTSDFFVHWVQQAPQRGPQWMGLINVEDENVIYADIFQGRISIVADTSKKTVFLDLTDLTFEETAIYFCATHTLQKDTGDYVAAFDSWGQGTLLYVSS
V domain 2: QSVLTQPPSVSAVPGQKVIISCSGRTSNIGTNFVSWYQQFPGAAPKLLIYDNFNRPSGISDRFSASKSDTSATLAITALQAGDEAEYYCGAWDSGLNPAVFVFGSGTRVFVL
B20: c10868 (antibody, V domains shown)
V domain 1: EVRLDQSGAEMGKTGTSVRLSCTVSGHTTSDFFIHWVKQAPQRGPQWMGLINVEDENVIFAEGFQGRISIGADTSKTTVFLDLTHLTFEDMALYFCTTHTLEKDTGDYVSAFDSWGQGTFLSVSS
V domain 2: QSVLTQPPSVSAVPGQKVIISCSGRTSNIGTNFVSWYQQFPGAAPKLLIYDTFHRPSGISDRFSASKSDTSATLAITALQPGDEAEYYCGAWDSGLNPAVFVFGSGTRVFVL

This experiment deals with HIV-1 NL4-3 Env on infected cells (HIV-1 group M subtype B, NL4-3 (pNL4-3 …, strain)).
For the molecule B1, the binding result is listed as “binds”.

Turning to B2, the binding result is recorded as “binds”. The value for B3 was “binds”.

For the molecule B4, the binding result was “binds”.

On to B5, for which the binding result is “binds”. For B6, the binding result was “binds”. The same measure for B7: “binds”; for B8: “binds”; for B9: “binds”.

Take B10: the binding result is reported as “binds”. The value for B11 was “binds”; that for B12 was “binds”. As for B13, the binding result is “binds”. The value for B14 was “binds”; that for B15 was “binds”. The same measure for B16: “binds”; for B17: “binds”. The value for B18 was “binds”; that for B19 was “binds”; that for B20 was “binds”.
